Usually Kd stands for the constant that tells how readily two partners part at equilibrium. Lower therefore signals a tighter complex.

This experiment deals with dynein light chain LC8 (UniProt P63167 1-89). Nature of the experiment: ITC.
Sequence of dynein light chain LC8 (P63167 whole entry): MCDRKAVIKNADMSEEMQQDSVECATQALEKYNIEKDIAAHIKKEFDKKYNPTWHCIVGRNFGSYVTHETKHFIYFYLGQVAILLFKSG
The molecule HPETQDSSTQTDTS [SPAG5 peptide] returned a Kd of 1300 nM. As for DDHSREKGTQTSGD [SLC9A2 peptide], the figure is 2200 nM.

Consider PAPPSYSDKGVQTPSK [ZFPM1 peptide], for which binding was put at a Kd of 1600 nM. The value for YGCTRHQSVQTEDG [MAST1 peptide] was 1700 nM; that for PRATAEFSTQTPSP [bassoon (BSN) peptide, modified version with the TQT motif near the C-terminus] was 6300 nM; that for PVLTSATGTQTSPA [MUC3A peptide] was 4500 nM. The value for APMSCDKSTQTPSP [BCL2L11 peptide] was 200 nM; that for QDFMKHLDKKTQTPKL [CCL7 peptide] was 2800 nM.

In the case of ARAGRSVSTQTGSM [CIZ1 peptide], the Kd was 800 nM. Against the preceding molecule, the Kd is about 3.5-fold lower. The value for SEIHGISRMTQTPQ [RavL peptide] was 8000 nM. In the case of EKELRHIGTQISSD [ICE1 peptide], the Kd is 3600 nM. As for YDSMDHLDKQTQTPKT [CCL2 peptide], the figure is 4700 nM; as for NQSFTTASTQTPPQ [CAPRIN2 peptide], 2600 nM. As for SSSTRSIDTQTPSV [GLCCI1 peptide], the figure is 4900 nM.

The record behind these values is article PMC6607443 (2019).
